The values below come from patent US20180126013A1 (H LEE MOFFITT CANCER CENTER AND RESEARCH INSTITUTE, published 2018).

The target in test [1] is T1, melanocortin-1 receptor (MC1R) (UniProt Q01726 1-317, limits assumed).
T1 construct: whole, on cells; also called Hek293/MC1R cells; A375/MC1R cells
As to the kind of experiment: time-resolved fluorescence (TRF) competition binding assay on Hek293/MC1R cells. As for the experimental part: (§1) Time-resolved fluorescence (TRF) competition binding assays were performed to determine binding affinities of these DOTA conjugates (FIG. 2). The TRF method takes advantage of the long fluorescence lifetime of the lanthanide Europium and can detect less than one attomole in a multiwell plate sample. Hek293/MC1R cells (Hek293 cells engineered to over-express MC1R) were used for the binding assays. Saturation TRF binding assays were performed using versions of the compounds with chelated europium to determine specific and non-specific binding (FIG. 17-20).

Test [2] deals with T1, melanocortin-1 receptor (MC1R). As to the kind of experiment: not stated in the sentence (binding affinity of the DOTA conjugate and its chelates).
The target is the same in test [3]. As to the kind of experiment: TRF saturation binding with the Eu chelate on Hek293/MC1R cells; specific = total minus nonspecific (20x MC1RL-DOTA block). As for the experimental part: The binding sequence is 1-Phenylbutyric acid-His(D)Phe-Arg-Trp-Gly-Lys(D-di-Glu-DOTA)-CONH₂. Eu is chelated into the conjugated DOTA for lanthanide-based binding assays but ²²⁵Ac, ⁶⁸Ga, or ¹¹¹In can also be chelated. […] 20×MC1Rl-DOTA was used for blocking. […] Data is the result of two repeats.
as §1

For test [4] the target is unchanged. Briefly: competitive binding assay (FIG. 2). As for the experimental part:
as §1

Square brackets hold non-standard residues; d marks the D form. Side chains are listed from the residue outwards. Ends that are not written are not given here. * marks the point of attachment. 1‑phenylbutyric acid = 1-phenylbutyric acid (N-terminal acyl cap); D‑di‑Glu = D-di-Glu linker between Lys side chain and DOTA; DOTA = O=C(O)CN1CCN(CC(=O)O)CCN(CC(=O)*)CCN(CC(=O)O)CC1; Ahx = NCCCCCC(=O)O

T1 sequence (Q01726 whole entry): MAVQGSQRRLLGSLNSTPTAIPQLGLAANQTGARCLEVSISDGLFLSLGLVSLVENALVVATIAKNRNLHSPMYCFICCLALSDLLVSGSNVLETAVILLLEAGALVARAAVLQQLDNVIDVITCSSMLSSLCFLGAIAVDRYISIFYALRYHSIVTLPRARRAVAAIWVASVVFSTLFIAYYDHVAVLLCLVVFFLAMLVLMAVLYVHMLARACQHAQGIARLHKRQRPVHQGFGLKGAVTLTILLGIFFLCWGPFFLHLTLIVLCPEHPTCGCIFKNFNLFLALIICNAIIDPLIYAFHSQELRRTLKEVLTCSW

B1: ^67/69Ga-DOTA-MC1RL (peptide)
peptide: H[dF]RWGK([Ahx-DOTA])-NH2
modifications: not fully specified (N-terminus); also: nonradioactive 67/69Ga chelated by DOTA
notes: Nonradioactive surrogate of the ^68Ga PET agent
B1 displayed a Ki in test [1] of 0.34 nM.

B2: DOTA-MC1RL (unlabeled) (peptide)
peptide: H[dF]RWGK([Ahx-DOTA])-NH2
modifications: not fully specified (N-terminus)
notes: also called MC1RL-DOTA; DOTA labeled conjugate of the MC1R specific ligand
As to B2, the Ki in test [2] was 0.3 nM; in test [1], 0.24 nM.

B3: MC1RL linked through aminohexanoic acid (Ahx) to DOTA:^152Eu (peptide)
peptide: {1‑phenylbutyric acid}-H[dF]RWGK([Ahx-DOTA])-NH2
modifications: also: 152Eu chelate
notes: also called 1-Phenylbutyric acid-His(D)Phe-Arg-Trp-Gly-Lys(Ahx-DOTA)-CONH2, Eu chelate
B3 registered a dissociation constant (Kd) in test [3] of 0.88 nM.

B4: ^139La-DOTA-MC1RL (peptide)
peptide: H[dF]RWGK([Ahx-DOTA])-NH2
modifications: not fully specified (N-terminus); also: 139La chelated by DOTA
notes: Nonradioactive surrogate of ^225Ac-DOTA-MC1RL; also called cold agent
Regarding B4, the Ki was 0.2 nM in test [4] and 0.23 nM in test [1].

B5: MC1RL linked to DOTA:^152Eu (peptide)
peptide: {1‑phenylbutyric acid}-H[dF]RWGK(DOTA)-NH2
modifications: also: 152Eu chelate
notes: also called 1-Phenylbutyric acid-His(D)Phe-Arg-Trp-Gly-Lys(DOTA)-CONH2, Eu chelate
With B5, the Kd in test [3] was found to be 0.69 nM.

B6: MC1RL linked through D-di-Glu to DOTA:^152Eu (peptide)
peptide: {1‑phenylbutyric acid}-H[dF]RWGK([D‑di‑Glu-DOTA])-NH2
modifications: also: 152Eu chelate
notes: also called 1-Phenylbutyric acid-His(D)Phe-Arg-Trp-Gly-Lys(D-di-Glu-DOTA)-CONH2, Eu chelate
Turning to B6, in test [3], the Kd is 0.19 nM.
